Source: patent US20130071375

How the values were obtained:
[1] = biological target: High mobility group box 1 (UniProt P09429)
[2] = biological target: Thrombomodulin (recombinant) (UniProt P07204)
Sequence of Thrombomodulin (recombinant) (P07204 whole entry, looked up): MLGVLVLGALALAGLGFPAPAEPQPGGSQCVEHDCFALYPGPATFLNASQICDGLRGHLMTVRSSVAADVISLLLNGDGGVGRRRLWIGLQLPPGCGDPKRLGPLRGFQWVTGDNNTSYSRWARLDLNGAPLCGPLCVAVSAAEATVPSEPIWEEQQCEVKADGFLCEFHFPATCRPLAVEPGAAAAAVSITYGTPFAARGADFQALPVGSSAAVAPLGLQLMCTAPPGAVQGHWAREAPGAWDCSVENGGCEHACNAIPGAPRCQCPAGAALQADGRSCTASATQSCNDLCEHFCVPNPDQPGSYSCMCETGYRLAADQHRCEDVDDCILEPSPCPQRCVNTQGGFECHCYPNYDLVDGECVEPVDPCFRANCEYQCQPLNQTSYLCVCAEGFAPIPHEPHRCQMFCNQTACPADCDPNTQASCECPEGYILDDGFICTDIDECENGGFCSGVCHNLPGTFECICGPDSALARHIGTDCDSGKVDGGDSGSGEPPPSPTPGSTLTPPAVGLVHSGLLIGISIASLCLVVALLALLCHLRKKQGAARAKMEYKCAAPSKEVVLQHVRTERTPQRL

Sequence of High mobility group box 1 (P09429 whole entry): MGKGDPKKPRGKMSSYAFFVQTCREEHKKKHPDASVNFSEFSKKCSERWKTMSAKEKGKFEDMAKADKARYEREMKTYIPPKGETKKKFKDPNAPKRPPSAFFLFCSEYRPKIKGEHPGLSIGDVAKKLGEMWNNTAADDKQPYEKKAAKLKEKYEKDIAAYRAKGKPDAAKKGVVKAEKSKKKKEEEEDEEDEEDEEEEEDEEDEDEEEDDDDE

Substance	proteolytic cleavage of HMGB1 (400 nmol/L) by 2 nM protease, SDS-PAGE and immunoblot [1]	acceleration of HMGB1 cleavage by 2 nM PCgla/MeizoTh with 400 nmol/L recombinant TM, SDS-PAGE and immunoblot [2]	proteolytic degradation of HMGB1 by 100 nM APC, with or without soluble EPCR and/or PC/PS/PE vesicles, 2 hours at 37 C [1]
PCgla/meizothrombin (meizothrombin with its Gla-domain replaced by that of protein C; Factor Xa-activated PCgla/prothrombin-3A)	PCgla/MeizoTh can proteolytically cleave HMGB1	TM can function as a cofactor to markedly accelerate the cleavage reaction	
Activated protein C			APC had no direct proteolytic effect on HMGB1 ... did not lead to the degradation of HMGB1 even after 2 hours incubation at 37 °C (data not shown)
